This data set deals with the molecule itself. The data set is described as follows: cross-linking.

Several values for one entry are separate records, joined by “and”; a condition that tells them apart may be missing. Equal values may be shown once.

B1: Anion exchanger 1 (AE1) (natural protein, human (endogenous in erythrocytes), UniProt P02730 1-911, looked up)
chain: MEELQDDYEDMMEENLEQEEYEDPDIPESQMEEPAAHDTEATATDYHTTSHPGTHKVYVELQELVMDEKNQELRWMEAARWVQLEENLGENGAWGRPHLSHLTFWSLLELRRVFTKGTVLLDLQETSLAGVANQLLDRFIFEDQIRPQDREELLRALLLKHSHAGELEALGGVKPAVLTRSGDPSQPLLPQHSSLETQLFCEQGDGGTEGHSPSGILEKIPPDSEATLVLVGRADFLEQPVLGFVRLQEAAELEAVELPVPIRFLFVLLGPEAPHIDYTQLGRAAATLMSERVFRIDAYMAQSRGELLHSLEGFLDCSLVLPPTDAPSEQALLSLVPVQRELLRRRYQSSPAKPDSSFYKGLDLNGGPDDPLQQTGQLFGGLVRDIRRRYPYYLSDITDAFSPQVLAAVIFIYFAALSPAITFGGLLGEKTRNQMGVSELLISTAVQGILFALLGAQPLLVVGFSGPLLVFEEAFFSFCETNGLEYIVGRVWIGFWLILLVVLVVAFEGSFLVRFISRYTQEIFSFLISLIFIYETFSKLIKIFQDHPLQKTYNYNVLMVPKPQGPLPNTALLSLVLMAGTFFFAMMLRKFKNSSYFPGKLRRVIGDFGVPISILIMVLVDFFIQDTYTQKLSVPDGFKVSNSSARGWVIHPLGLRSEFPIWMMFASALPALLVFILIFLESQITTLIVSKPERKMVKGSGFHLDLLLVVGMGGVAALFGMPWLSATTVRSVTHANALTVMGKASTPGAAAQIQEVKEQRISGLLVAVLVGLSILMEPILSRIPLAVLFGIFLYMGVTSLSGIQLFDRILLLFKPPKYHPDVPYVKRVKTWRMHLFTGIQIICLAVLWVVKSTPASLALPFVLILTVPLRRVLLPLIFRNVELQCLDADDAKATFDEEEGRDEYDEVAMPV
modifications: extensive and variable glycosylation (sites not given)
In the case of B1, the “stoichiometry N” value is 2 and 4.

As usually defined, the stoichiometry N is the number of molecules, sites or subunits per partner or assembly.

These data come from publication PMC5214978 (Structure (London, England : 1993), 2016).
